# From patent US7521477B2, “Vitamin C derivatives with peptide, preparation method thereof and composition comprising the same” (Peptron Co., Ltd., priority 2003, dated 2009)
# Peptide text beside a SMILES is read from it. * marks the point of attachment. X1 = O=C(CCC(=O)*)OC[C@H](O)[C@H]1OC(=O)C(O)=C1O
# Legend:
# [1] = Color change test (storage stability in solution); assay type: physicochemical; design: key: −: no or very slight noticeable change (colorless or light yellow); +: slight; ++: moderate; +++: extreme; conditions: 50 mM in 50 mM potassium phosphate pH 7.0, 40° C.
# Protocol: The compounds I to IV synthesized in Example 4 and vitamin C (Sigma Aldrich) were independently dissolved in 50 mM potassium phosphate of pH 7.0 at a concentration of 50 mM, and stored in an incubator at 40° C. for three weeks. Thereafter, the compounds and vitamin C were evaluated for color change according to the standard criteria, and the results are given in Table 2, below.
# [2] = molecular target: mushroom tyrosinase (Agaricus bisporus, UniProt C7FF04); assay: Inhibitory activity against tyrosinase; assay type: biochemical, mushrooms; conditions: tyrosine substrate, pH 6.8, 37° C.; read-out: IC50 (compound concentration to inhibit 50% of tyrosinase activity)
# Sequence of mushroom tyrosinase (C7FF04 1-392): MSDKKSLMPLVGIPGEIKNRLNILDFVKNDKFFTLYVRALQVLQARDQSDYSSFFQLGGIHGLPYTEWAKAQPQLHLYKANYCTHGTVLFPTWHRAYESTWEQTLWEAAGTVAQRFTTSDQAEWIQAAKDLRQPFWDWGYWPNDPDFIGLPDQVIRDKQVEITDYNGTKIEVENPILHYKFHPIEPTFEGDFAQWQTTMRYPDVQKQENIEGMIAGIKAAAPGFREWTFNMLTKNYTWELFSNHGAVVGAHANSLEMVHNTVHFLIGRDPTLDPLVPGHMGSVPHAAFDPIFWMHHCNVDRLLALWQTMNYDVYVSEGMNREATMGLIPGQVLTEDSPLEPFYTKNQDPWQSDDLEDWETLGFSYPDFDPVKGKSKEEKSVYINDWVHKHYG
# Protocol: Tyrosinase was purchased from the Sigma Company, which was isolated from mushrooms and purified. Tyrosin as a substrate for the purified mushroom tyrosinase was prepared by dissolving in 0.05 M potassium phosphate buffer (pH 6.8) in an amount of 0.3 mg/ml. The compounds and vitamin C were dissolved in distilled water at a concentration of 10 mM, and diluted with distilled water to suitable concentrations.
# 0.5 ml of the tyrosine solution and 0.5 ml of a buffer were put into a test tube, and 0.5 ml of the diluted compound or vitamin C was added to the test tube. After each test tube was incubated in an incubator at 37° C. for 10 min, 0.05 ml of tyrosinase (2,000 U/ml) was added to each test tube, followed by incubation at 37° C. for 10 min. A sample added with 0.5 ml distilled water instead of the compound was used as a control. Thereafter, each test tube was rapidly cooled on ice to terminate the reaction. Absorbance at 475 nm was measured using a spectrophotometer. Inhibition rate against tyrosinase was calculated using the measured absorbance according to the following Equation 1, and IC50 values (compound concentration to inhibit 50% of tyrosinase activity) were then determined. Inhibition rate (%)=(A−B)/A×100 Equation 1
# wherein, A is an absorbance at 475 nm of a sample not containing an inhibitor, and B is an absorbance at 475 nm of a sample containing an inhibitor.
# [3] = system: male Hartley guinea pigs; assay: Photosensitization test (Adjuvant & Strip method); assay type: in vivo
# Protocol: A photosensitization test for the compound II-4 was carried out according to an Adjuvant & Strip method using male Hartley guinea pigs. After four sites to be sensitized were selected at the cervical and dorsal skin of the guinea pigs, an emulsion of WFI and FCA were intradermally injected to each of the selected sites. The sensitized sites were stripped only in a degree of inducing weak erythema, and covered with 0.01 PBS (excipient group), the compound II-4 (test group) and CP (chlorpromazine; positive control group) in a non-occlusive manner. After two hours, long wave-length UV light of about 10 J/cm^2 was irradiated to the test substance-applied sites. 24 hrs, 48 hrs and 72 hrs after UV irradiation, signs of photosensitization were investigated.
# [4] = system: male Hartley guinea pigs; assay: Phototoxicity test
# Protocol: Each of the test samples was applied to the skin of guinea pigs, and the guinea pigs were exposed to ultraviolet A (UVA) radiation. Then, potency to induce phototoxicity was evaluated. Induction of phototoxicity, which is an abnormal response of the skin to a photo-stimulus such as ultraviolet or visible light, occurs non-immunologically by a chemical. Unlike the allergic response, the degree of phototoxicity can be expected by sufficient intensity of radiation and drugs.
# CP and 8-MOP were prepared at a final concentration of 10% in DMSO and then diluted to 1%. Each of guinea pigs was fixed on a fixing plate, and the skin of the guinea pig was covered with 50 μl of each of the test samples. Then, the right area of the skin was not exposed to UV light, and the left area of the skin was exposed to UVA light (320 to 380 nm) of 15 J/cm^2, which was irradiated in a distance of about 10 cm for about 2 hrs. 24 hrs, 48 hr and 72 hrs after UVA irradiation, photosensitization in the treatment group was evaluated in comparison with that in the positive control groups.
# [5] = system: male Hartley guinea pigs; conditions: guinea pig, in vivo
# Protocol: Two weeks after secondary sensitization, topical challenge was carried out, as follows. […] Skin reading was made after removal of the patches.
# [6] = system: rabbits; assay: Skin irritation test (patch test); assay type: in vivo; conditions: 0.5 ml of 1% in 0.01M PBS, 24 hrs patch, read 24 hrs and 72 hrs
# Protocol: 0.5 ml of 1% compound II-4 in 0.01M PBS was applied to each hairless area (2.5 cm×2.5 cm) of the back of rabbits for 24 hrs once. Each of the treated sites was covered with a single sheet of gauge (10 cm×10 cm) to prevent loss of the test compound by contact and then an impermeable and unreactive solid film to prevent evaporation of the test compound. Then, the treated site was bound with an elastic bandage while not disturbing behavior of the rabbits, and the bandage was then held in place by a paper tape. 24 hrs and 72 hrs after application of the test compound, skin irritation was investigated.
# [7] = system: eyes of rabbits; assay: Ocular irritation test; assay type: in vivo, New Zealand White Rabbit; conditions: 0.1 ml of 1% in 0.01M PBS
# Protocol: The compound II-4 was determined whether inducing ocular irritation or evaluated for the degree of ocular irritation. The compound II-4 was applied to the eyes of rabbits (New Zealand White Rabbit, NZW).
# 0.1 ml of 1% compound II-4 in 0.01M PBS was applied to the eyes of the rabbits. That is, the test compound was applied to one eye (right) of each of nine rabbits in an amount of 0.1 ml/head according to the standard criteria for toxicity test of pharmaceutical and medicinal substances (a publication by Korean Food & Drug Administration, Vol. 1999-61, Dec. 22, 1999). After application of the test compound, the treated eyes of the rabbits were maintained at a state of being closed for about one second to prevent loss of the applied test compound. Then, the degree of damage in the cornea, the iris and the conjunctiva was investigated.
# [8] = system: human normal fibroblasts, B16 melanocytes and HaCaT cells; assay: Cytotoxicity, MTT assay; assay type: cell-based; conditions: concentration of 5 mM
# [9] = system: mice; assay: Toxicity test upon single oral administration; assay type: in vivo; conditions: single oral dose of 2,000 mg/10 ml/kg, 14 days, male and female mice
# Protocol: (§1) The compound II-4 was evaluated for safety upon single oral administration. The compound II-4 was orally administered to five male and five female mice (SamtakoBioKorea Co. Ltd.) in a single dose of 2,000 mg/10 ml/kg. As a control, five male and five female mice were orally administered once with 0.1 M PBS of 10 ml/kg. During 14 days after administration, death, general pathogenic symptoms and change in body weight were not observed.
# [10] = Toxicity test upon single oral administration; assay type: in vivo; conditions: both sexes, mouse, in vivo, 2000 mg/kg; single oral administration, male and female mice; read-out: Lethal dose
# Protocol: as §1
# [11] = Areas exposed to UVA, applied concentration 0.1%
# [12] = Areas exposed to UVA, applied concentration 1%
# [13] = Areas exposed to UVA, applied concentration 10%
# [14] = Areas not exposed to UVA, applied concentration 0.1%
# [15] = Areas not exposed to UVA, applied concentration 1%
# [16] = Areas not exposed to UVA, applied concentration 10%
compound,measurement,setting,value
6-(succinyl-glycyl-lysyl-histidine)ascorbic acid [II-2],Color change After 1 week,[1],−
same,Color change After 2 weeks,[1],+
same,Color change After 3 weeks,[1],+
same,IC50,[2],700 µM
"CN(C)CCCN1c2ccccc2Sc2ccc(Cl)cc21 [CP, Chlorpromazine]",Stimulation index,[3]; Areas exposed to UVA,5.8
same,Stimulation index,[3]; Areas not exposed to UVA,0.0
same,Photosensitization index,[3]; index of UVA irradiation site minus index of non-irradiation site,5.8
same,Total score/Site No.,"[4]; male, Hartley, guinea pig, in vivo",0 + 0/10
"COc1c2occc2cc2ccc(=O)oc12 [Compound 8-MOP, 8-methoxypsoralen]",Evaluation,[4]; [11],Clearly irritating
same,Mean score,[4]; [11],2.3
same,Evaluation,[4]; [12],Extremely irritating
same,Mean score,[4]; [12],3.2
same,Evaluation,[4]; [13],Extremely irritating
same,Mean score,[4]; [13],4.0
same,Evaluation,[4]; [14],Practically non-irritating
same,Mean score,[4]; [14],0
same,Evaluation,[4]; [15],Clearly irritating
same,Mean score,[4]; [15],1.4
same,Evaluation,[4]; [16],Clearly irritating
same,Mean score,[4]; [16],1.4
"NCCCCC(NC(=O)C(Cc1cnc[nH]1)NC(=O)CNC(=O)CCC(=O)OCC(O)C1OC(=O)C(O)=C1O)C(=O)O (stereo not drawn) [II-1, 6-(succinyl-glycyl-histidyl-lysine)ascorbic acid]",Color change After 1 week,[1],−
same,Color change After 2 weeks,[1],+
same,Color change After 3 weeks,[1],+
same,IC50,[2],650 µM
"C[C@@H](O)[C@H](NC(=O)[C@H](CCCCN)NC(=O)CCC(=O)OC[C@H](O)[C@H]1OC(=O)C(O)=C1O)C(=O)N[C@H](C(=O)N[C@@H](CCCCN)C(=O)N[C@@H](CO)C(=O)O)[C@@H](C)O [II-4, 6-(succinyl-lysyl-threonyl-threonyl-lysyl-serine(SEQ ID NO:1))ascorbic acid] (X1-KTTKS-OH)",Mean score,"[3]; guinea pig, in vivo",(0 + 0)/5
same,Photosensitization index,"[3]; guinea pig, in vivo",0
same,Photosensitizer (conclusion),"[3]; guinea pig, in vivo",not a photosensitizer
same,Stimulation index,"[3]; guinea pig, in vivo",0
same,Sensitization class,[5],I
same,Sensitization rate (%),[5],0%
same,Sensitization score (total hrs),[5],0
same,Skin reaction in induced regions,[5],no skin reaction was observed
same,sensitization class,[5],I
same,skin irritation rate,[5],0%
same,Skin irritation,[6],very safe upon application to the skin
same,Index of Acute Ocular Irritation (I.A.O.I),[7],zero
same,Conjunctiva redness and chemosis,[7]; day 1 to day 7,no sign of conjunctiva redness and chemosis was observed
same,Cytotoxicity,[8],did not showed cytotoxicity
same,Evaluation,"[4]; guinea pig, in vivo",Practically non-irritating
same,Mean score,"[4]; guinea pig, in vivo",0
same,Phototoxicity (conclusion),"[4]; guinea pig, in vivo",rarely have phototoxicity
same,Total score/Site No,"[4]; guinea pig, in vivo",0 + 0/10
same,Total score/Site No.,"[4]; guinea pig, in vivo",0 + 0/10
same,"Death, general pathogenic symptoms and change in body weight",[9],not observed
same,LD50 at 336 h,[10],> 2000 mg/kg
